Assays:
IL-6 = test: Serum IL-6 2 h after esophagectomy (immunoassay); assay type: in vivo, human; conditions: 200 mg i.v.; 2 h postoperatively; versus placebo
Procedure: Blood samples were taken 2 h after finishing surgery and serum was prepared. The serum level of IL-6 was measured using a routine immunoassay (“Immulite, IL-6”, available from Siemens Medical Solution Diagnostics).

IL-8 = test: Serum IL-8 6 h after esophagectomy (ELISA); assay type: in vivo, human; conditions: 200 mg i.v.; 6 h postoperatively; versus placebo
Procedure: Blood samples were taken 6 h after finishing surgery and serum was prepared. The serum level of IL-8 was measured using a commercially available ELISA, (“Immulite, IL-8”, available from Siemens Medical Solution Diagnostics).

serum elastase [1] = molecular target: T1, serum elastase (Homo sapiens, UniProt P08246); test: Serum elastase activity (photometric assay) in patients undergoing esophagectomy; assay type: in vivo; conditions: 200 mg i.v. over 30 min, beginning 15 min before surgery
T1 construct: from tissue; host or cells: human serum
T1 sequence (P08246 30-267): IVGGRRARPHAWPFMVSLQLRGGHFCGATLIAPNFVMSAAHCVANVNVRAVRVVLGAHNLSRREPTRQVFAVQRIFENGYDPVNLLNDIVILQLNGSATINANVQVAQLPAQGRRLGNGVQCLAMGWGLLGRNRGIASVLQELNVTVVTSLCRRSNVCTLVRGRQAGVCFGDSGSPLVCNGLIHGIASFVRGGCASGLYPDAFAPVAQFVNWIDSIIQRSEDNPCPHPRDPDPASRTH
Procedure: Blood samples were removed at the intervals indicated and serum was prepared and stored frozen at −20° C. Serum elastase activity was determined using a photometric assay.

human leukocyte elastase = molecular target: T2, human leukocyte elastase (Homo sapiens, UniProt P08246); test: Inhibition of leukocyte elastase (Ki); assay type: biochemical
T2 sequence (P08246 30-267): T1 sequence (P08246 30-267)
Source text: The invention generally relates to novel uses of polypeptides comprising the sequence depicted in SEQ ID NO: 1 or homologue, derivatives, or fragments of the sequence depicted in SEQ ID NO: 1, for the treatment of medical conditions for which a use of […] has not yet been contemplated. […] Experiments for measuring the activity of leukocyte elastase and its inhibition can be conducted by the method described in European Patent EP 0 402 068. As used herein, the term “homologue” refers to peptides or polypeptides which share a substantial degree of homology on the amino acid level with the sequence of SEQ ID NO: 1 over a certain stretch of its primary structure. In particular, the term “homologue” relates to polypeptides having a sequence (or comprising such sequence) which differs from the sequence depicted in SEQ ID NO: 1 by the substitution (or deletion) of one or more single amino acids. Generally, any amino acid from the sequence depicted in SEQ ID NO: 1 can be deleted or substituted against another amino acid as long as the inhibitory activity of the polypeptide is not lost. Further polypeptides are also included which differ from the sequence of SEQ ID NO: 1 by the insertion of one or more additional amino acids. “One or more” in the above context always refers to 1-50, preferably 1-20, even more preferably 1-10, most preferably 1-5. […]

[2] = Stability of Elafin to sterilization, quantified by HPLC; assay type: physicochemical
Procedure: (§1) Lyophilized samples of 300 μg Elafin were sterilized either by heat sterilization or by ethylene oxide sterilization in a suitable standard sterile packing material. After sterilization, samples were dissolved in 300 μl distilled water. Elafin was quantified by HPLC (reverse phase C8-separation medium) and by determination of elastase inhibitory activity.

[3] = molecular target: T3, leukocyte elastase activity in the serum (Homo sapiens, UniProt P08246); test: Phase I: serum elastase activity after single intravenous infusion in healthy male volunteers; assay type: in vivo
T3 construct: from tissue; host or cells: human serum (ex vivo, after in vivo dosing of Elafin)
T3 sequence (P08246 30-267): T1 sequence (P08246 30-267)
Procedure: In order to assess the potential pharmacological effect of administered Elafin the inhibition of leukocyte elastase activity in the serum was measured.
The data presented in FIG. 7 were obtained in a Phase I clinical trial.
Within each dosage group the median elastase activity is shown relative to the predose value at t=0 min.

[4] = Period of postoperative intensive care (ICU) after esophagectomy; assay type: in vivo, human; conditions: 200 mg i.v.
Source text: After surgery all patients were routinely admitted to the intensive care unit (ICU) at least overnight. Patients were maintained in the ICU for as long as the treating physician considered necessary.

rats = test: Biocompatibility: 14 days continuous intravenous infusion in rats; assay type: in vivo
Procedure: Rats were treated with up to 100 mg elafin/kg/day over a period of 14 days by continuous intravenous infusion.

elastase = test: Stability of Elafin to sterilization, elastase inhibitory activity; assay type: biochemical
Procedure: as §1

[5] = Phase I: plasma Elafin concentrations (ELISA) after single intravenous infusion in healthy male volunteers
Procedure: Each dose was administered to 6 individuals. After Elafin administration blood samples were taken at the indicated times from each volunteer and the plasma prepared and frozen to −20° C. Elafin in the plasma samples was quantified using an ELISA.

[6] = Plasma Elafin levels (ELISA) after subcutaneous injection in a healthy human volunteer; assay type: in vivo; conditions: 100 mg subcutaneously, n = 1
Procedure: 100 mg of Elafin physiological saline were injected subcutaneously into the abdomen of a healthy human volunteer. Blood samples were removed at the times indicated in FIG. 9 and plasma prepared and stored at −20° C. The plasma Elafin levels were measured using an ELISA.

[7] = Plasma Elafin levels (ELISA) in patients undergoing esophagectomy; assay type: in vivo, human
Procedure: Blood samples were removed at the intervals indicated and plasma was prepared and stored frozen at −20° C. Plasma Elafin levels were measured using an ELISA.

Pseudomanae aeruginosa = conditions: cited from earlier work
serum elastase [8] = molecular target: T1, serum elastase; test: Serum elastase activity after subcutaneous injection in a healthy human volunteer; assay type: in vivo; conditions: 100 mg subcutaneously; within the first 30 min-4 hours
Procedure: 100 mg of Elafin in physiological saline were injected subcutaneously into the abdomen of a healthy human volunteer. Blood samples were removed at the times indicated in FIG. 10 and serum prepared and stored at −20° C.

Staphylococcus aureus = conditions: cited from earlier work
CRP = conditions: 200 mg i.v.; first postoperative day; versus placebo
Procedure: Patients undergoing esophagectomy for esophagus carcinoma were administered either 200 mg Elafin in 250 mL physiological saline (verum) or 250 mL saline (placebo) i.v. over a period of 30 min beginning 15 min before the commencement of surgery. Serum was prepared from blood samples which were taken on admission and on the day after surgery. The serum levels of CRP were measured using a commercially available ELISA. (CRPL 3, cobas®, available from Roche/Hitachi).

[9] = rats, up to 100 mg/kg/day, 14 days continuous i.v. infusion

Elafin: Human anti-protease polypeptide of 57 amino acids, about 6 kDa (SEQ ID NO: 1); reversible inhibitor of neutrophil elastase and proteinase 3 (AQEPVKGPVSTKPGSCPIILIRCAMLNPPNRCLKDTDCPGIKKCCEGSCGMACFVPQ; listed as Homo sapiens)
diminution of postoperative increase in serum IL-6 (IL-6): about 80% | diminution of postoperative increase in serum IL-8 (IL-8): about 70% | serum elastase activity during the period of surgery (serum elastase [1]): markedly reduced | serum elastase activity in the course of the subsequent 3 postoperative days (serum elastase [1]): recovered to slightly less than the preoperative level | Ki (human leukocyte elastase): ~0.1 nM | HPLC (Elafin quantified) ([2]; Control (room temperature)): 108 µg | HPLC (Elafin quantified) ([2]; Ethylene oxide sterilization): 100 µg | HPLC (Elafin quantified) ([2]; Heat sterilization): 0 µg | Median t50% (duration of serum elastase inhibition to a threshold level of 50%) ([3]; 20 mg i.v.): 40 min | Median t50% (duration of serum elastase inhibition to a threshold level of 50%) ([3]; 200 mg i.v.): 480 min | Median t50% (duration of serum elastase inhibition to a threshold level of 50%) ([3]; 400 mg i.v.): 720 min | period of pharmacologically relevant elastase inhibition ([3]; doses of 100-400 mg i.v.): up to 720 min | inhibition of serum elastase ([3]; single i.v. infusion over 30 min, various doses): rapid and potent inhibition | period of postoperative ICU care required ([4]; compared with placebo): significant reduction | reduction of necessity for intensive care ([4]; meaning of 'significant reduction' (at least 25% or one day)): at least 25% | side effects (rats; intravenously to rats): without any side effects | body weight (rats; [9]): Neither food consumption nor body weight was influenced | clinical signs of haemolysis or cytotoxicity in skin, eyes, mucous membranes, lungs and circulation (rats; [9]): no clinical signs of haemolysis or cytotoxicity were observed | food consumption (rats; [9]): Neither food consumption nor body weight was influenced | mortality (rats; [9]): No mortality | Inhibitory activity (elastase; Control (room temperature)): 100% | Inhibitory activity (elastase; Ethylene oxide sterilization): 101% | Inhibitory activity (elastase; Heat sterilization): −19- % | half-life of elafin in plasma ([5]; on average): 1.92 h | mode of elimination from plasma ([5]; single i.v. infusion, healthy volunteers): eliminated in two first-order processes | time of peak plasma concentration after administration [6]: about 60 min | half life estimated from plasma levels in esophagectomy patients ([7]; 200 mg i.v. at the beginning of surgery): at most 2 h | period of significant plasma Elafin concentrations after the end of the operation ([7]; 200 mg i.v. over 30 min, beginning 15 min before surgery): up to 6 h | kill Pseudomanae aeruginosa (Pseudomanae aeruginosa): kill | inhibition of serum elastase activity (serum elastase [8]): potent inhibition | kill Staphylococcus aureus (Staphylococcus aureus): kill | diminution of postoperative increase in serum CRP (CRP): about 70%

Reference: US20140287985A1, “NOVEL USES OF ELAFIN” (Proteo Biotech AG, priority 2010, published 2014)
